Experimental findings from US20240327517A1 (SUZHOU SMARTNUCLIDE BIOPHARMACEUTICAL, published 2024) are described below.

Residue numbers refer to the chain shown, from its start. Numbers in names are those of the source.

To fix the notation:
B1: C37H (humanized variant of C37-F1) (VHH)
VHH: QVQLVESGGGLVQPGGSLRLSCAASGLTFSDYAIGWFRQAPGKEREGISCIRIYDGNTYYADSVKGRFTISRDNSKNHVYLQMNSLRAEDTAVYYCAAGSYYSCSVYPAYDLDYWGKGTLVTVSS
B2: C37-H1 (humanized variant of C37-F1) (VHH)
VHH: B1 VHH with N57R, K117Q
B3: C37-H2 (humanized variant of C37-F1) (VHH)
VHH: B1 VHH with G56R, K117Q
B4: C37-H3 (humanized variant of C37-F1) (VHH)
VHH: B1 VHH with S75A
B5: C37-H4 (humanized variant of C37-F1) (VHH)
VHH: B1 VHH with R87K, A88P
B6: C37-S72R (histidine-tagged) (VHH)
VHH: QLQLVESGGGLVQAGGSLRLSCAASGLTFEDYAIGWFRQAPGKEREGISCIRIYDGNTYSAESVKGRFTISRDNAKNQVYLQINTLKPEDTAVYYCAAGSYYSCSVYPDYDMDYWGKGTLVTVSS
notes: not shown: histidine tag
B7: C37-T85S (histidine-tagged, section 1.2) (VHH)
VHH: B6 VHH with R72S, T85S
notes: not shown: histidine tag
B8: C37-SA (histidine-tagged) (VHH)
VHH: B6 VHH with R72S, T85S, D109A
notes: not shown: histidine tag
B9: C37-D109A (histidine-tagged) (VHH)
VHH: B6 VHH with R72S, D109A
notes: not shown: histidine tag
B10: C37-RSA (histidine-tagged) (VHH)
VHH: B6 VHH with T85S, D109A
notes: not shown: histidine tag
B11: C37-RA (histidine-tagged) (VHH)
VHH: B6 VHH with D109A
notes: not shown: histidine tag
B12: C37-TMS (histidine-tagged) (VHH)
VHH: B6 VHH with R72S, Q78T, I83M, T85S
notes: not shown: histidine tag
B13: C37-M112L (histidine-tagged) (VHH)
VHH: B6 VHH with R72S, M112L
notes: not shown: histidine tag
B14: C37-SR (histidine-tagged) (VHH)
VHH: B6 VHH with E30S
notes: not shown: histidine tag
B15: C37-D111A (histidine-tagged) (VHH)
VHH: B6 VHH with R72S, D111A
notes: not shown: histidine tag
B16: C37-D31Y (histidine-tagged) (VHH)
VHH: B6 VHH with D31Y, R72S
notes: not shown: histidine tag
B17: C37-KL-QQ (histidine-tagged) (VHH)
VHH: B6 VHH with R72S, K117Q, L120Q
notes: not shown: histidine tag
B18: C37-SRS (histidine-tagged) (VHH)
VHH: B6 VHH with E30S, T85S
notes: not shown: histidine tag
B19: C37-SRA (histidine-tagged) (VHH)
VHH: B6 VHH with E30S, D109A
notes: not shown: histidine tag
B20: C37-E30S (histidine-tagged) (VHH)
VHH: B6 VHH with E30S, R72S
notes: not shown: histidine tag
B21: C37 single-domain antibody (untagged) (VHH)
VHH: B6 VHH with R72S
notes: The untagged construct was expressed in HEK293 and used in the Protein A test; also called C37 antibody
B22: C37-ST-YS (VHH)
VHH: B6 VHH with S60Y, R72S, T85S
notes: Mutant of section 1.1 (Protein A test); No tag is mentioned for this section
B23: C37-YMS (VHH)
VHH: B6 VHH with S60Y, R72S, I83M, T85S
notes: as for B22
B24: C37-YDMS (VHH)
VHH: B6 VHH with S60Y, E62D, R72S, I83M, T85S
notes: as for B22
B25: C37-S60Y (VHH)
VHH: B6 VHH with S60Y, R72S
notes: as for B22
B26: C37-YDS (VHH)
VHH: B6 VHH with S60Y, E62D, R72S, T85S
notes: as for B22

For one assay, the target named is T1, CD8α Fc fusion protein (UniProt P01732 22-182, limits assumed).
T1 construct: Used as the coating antigen of the ELISAs; also called CD8α antigen; CD8α protein; not shown: Fc part
T1 sequence (P01732 22-182 limits assumed): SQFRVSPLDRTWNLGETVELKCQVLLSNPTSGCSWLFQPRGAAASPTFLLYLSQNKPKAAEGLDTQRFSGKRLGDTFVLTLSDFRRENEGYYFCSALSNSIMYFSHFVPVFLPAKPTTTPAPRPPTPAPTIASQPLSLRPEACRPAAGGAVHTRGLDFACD
The assay can be described thus: affinity detection of humanized variants (method not restated; taken as the CD8α Fc ELISA of section 1.2); relative to C37-F1. How it is done:
(§1) After washing, an anti-His horseradish peroxidase-labeled antibody was added to allow reaction for 1 hour at room temperature. After washing, a chromogenic solution was added, and an absorption value was read at a wavelength of 450 nm. The software SotfMaxPro v5.4 was used for data processing and diagraph analysis; four-parameter fitting was performed to obtain the binding curve of the mutated antibody to CD8α; and different mutants were compared in relative activity with the C37 antibody as a control, in order to reflect the affinity of the antibody to CD8α.
On the technique in general: In an ELISA, binding on a coated surface is turned into a signal by an enzyme label.
As to B1, the “Relative activity (%)” value worked out at 151%. Still for that read-out and setting: as for B2, the figure is 110%; as for B3, 122%; as for B4, 171%. Still for that read-out and setting: as for B5, the figure is 141%.

The target in another assay is T1, CD8α Fc fusion protein. The assay can be described thus: ELISA, plate coated with CD8α Fc fusion protein, anti-His-HRP detection, 4-parameter fit; relative to C37.
Source text: The expression level and binding activity of each mutant were separately detected. For the sake of detection, a histidine-tagged recombinant plasmid was used in this section for transient transfection, after which a recombinant protein was purified by affinity chromatography with a corresponding Ni+ resin gel, thereby obtaining a protein of interest for direct use in the detection of expression level and binding activity.
as §1
Regarding B6, the “Relative activity (%)” value is 115%. Turning to B7, the “Relative activity (%)” value amounted to 162%. Still for that read-out and setting: as for B8, the figure is 257%. Same read-out and setting: for B9 the value was 476%; for B10, 103%; for B11, 108%.

As to B12, the “Relative activity (%)” value came out at 107%. The same measure, in the same setting: for B13 the value was 206%; for B14, 42%. Same read-out and setting: for B15 the value was 84.6%; for B16, 48.4%. On the same count and under the same terms, for B17 the value was 141%; for B18, 33%. As to B19, the “Relative activity (%)” value is 40%. Still for that read-out and setting: for B20 the value was 126%.

A further assay concerns the target T2, PROTEIN A (packing of the PROTEIN A affinity chromatography) (UniProt P38507 37-327, limits assumed). As to the kind of experiment: Protein A affinity chromatography of HEK293-expressed protein, SDS-PAGE of fractions. The source says: After preliminary screening and identification, C37-cHis was selected as a final antibody sequence (including a histidine tag) from candidate antibodies, and meanwhile, an untagged recombinant plasmid C37 was constructed. HEK293 cells were transfected with the single-domain antibody C37 fusion protein plasmid constructed by the above recombination for expression of an antibody. […] Therefore, it was necessary to optimize the sequence of the C37 antibody to allow purification of the C37 antibody by affinity chromatography.
The recombinant plasmid C37 and the mutated recombinant plasmid C37-YDHMS were subjected to antibody expression via the HEK293 cells, respectively, and purification was conducted by means of the packing of the PROTEIN A affinity chromatography, in order to verify the binding to the affinity packing after the mutations.
Take B21: the binding result is given as “no binding”.

For a further assay, the target named is T2, PROTEIN A (packing of the PROTEIN A …). As to the kind of experiment: binding to the Protein A affinity packing.
With B22, the binding result is recorded as “no binding”.

On to B23, for which the binding result was “no binding”. Still for that read-out and setting: for B24 the value was “no binding”; for B25, “no binding”; for B26, “no binding”.
